Reference: article PMC10397247
Each block holds one binder with its values, some of them ahead of it.

Experiments:
[1] = biological target: T1, P6SC2; assay: two-hybrid library CC1;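 also: natural log of median RNA to DNA barcode read ratio; higher means stronger binding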
T1 chain: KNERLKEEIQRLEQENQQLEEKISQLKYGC

[2] = biological target: T2, P8mS; assay: two-hybrid library CC1; details: mean of both orientations;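 also: natural log of median RNA to DNA barcode read ratio; higher means stronger binding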
T2 chain: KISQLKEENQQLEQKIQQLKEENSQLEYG

[3] = biological target: T3, P7; assay: two-hybrid library CC1; details: mean of both orientations;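 also: natural log of median RNA to DNA barcode read ratio; higher means stronger binding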
T3 chain: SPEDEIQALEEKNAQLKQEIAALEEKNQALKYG

[4] = biological target: T4, P8; assay: two-hybrid library CC1; details: mean of both orientations;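 also: natural log of median RNA to DNA barcode read ratio; higher means stronger binding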
T4 chain: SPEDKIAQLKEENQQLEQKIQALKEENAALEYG

[5] = biological target: T5, P9; assay: two-hybrid library CC1; details: mean of both orientations;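 also: natural log of median RNA to DNA barcode read ratio; higher means stronger binding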
T5 chain: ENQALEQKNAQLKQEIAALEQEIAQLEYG

[6] = biological target: T6, P6mS; assay: two-hybrid library CC1; details: mean of both orientations;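 also: natural log of median RNA to DNA barcode read ratio; higher means stronger binding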
T6 chain: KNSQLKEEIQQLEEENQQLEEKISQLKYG

[7] = biological target: T7, P7mS; assay: two-hybrid library CC1; details: mean of both orientations
T7 chain: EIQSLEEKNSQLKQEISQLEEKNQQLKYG

[8] = biological target: T8, O6; assay: two-hybrid library CCNG1
T8 chain: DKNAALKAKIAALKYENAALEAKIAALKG

[9] = biological target: T9, O9; assay: two-hybrid library CCNG1
T9 chain: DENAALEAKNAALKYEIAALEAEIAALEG

[10] = biological target: T10, O8; assay: two-hybrid library CCNG1
T10 chain: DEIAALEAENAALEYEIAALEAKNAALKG

[11] = biological target: T11, O7; assay: two-hybrid library CCNG1
T11 chain: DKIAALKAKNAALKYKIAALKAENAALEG

[12] = biological target: T12, 4H570-bA; assay: two-hybrid library CCNG1
T12 chain: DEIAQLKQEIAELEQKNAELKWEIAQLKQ

[13] = biological target: T13, 4H850-bA; assay: two-hybrid library CCNG1
T13 chain: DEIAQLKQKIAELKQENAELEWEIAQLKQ

[14] = biological target: T14, 4H3817-bA; assay: two-hybrid library CCNG1
T14 chain: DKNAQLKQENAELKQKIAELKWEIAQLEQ

[15] = biological target: T15, 4H3974-bA; assay: two-hybrid library CCNG1
T15 chain: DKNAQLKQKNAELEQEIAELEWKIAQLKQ

[16] = biological target: T16, 4H3858-bA; assay: two-hybrid library CCNG1
T16 chain: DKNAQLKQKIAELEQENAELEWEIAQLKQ

[17] = biological target: T17, 4H3926-bA; assay: two-hybrid library CCNG1
T17 chain: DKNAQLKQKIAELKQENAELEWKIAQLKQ

[18] = biological target: T18, 4H906-bA; assay: two-hybrid library CCNG1
T18 chain: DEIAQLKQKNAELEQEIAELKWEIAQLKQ

[19] = biological target: T19, 4H3628-bA; assay: two-hybrid library CCNG1
T19 chain: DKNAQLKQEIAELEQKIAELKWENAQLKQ

[20] = biological target: T20, 4H591-bA; assay: two-hybrid library CCNG1
T20 chain: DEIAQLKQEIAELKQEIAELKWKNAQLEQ

[21] = biological target: T21, 4H626-bA; assay: two-hybrid library CCNG1
T21 chain: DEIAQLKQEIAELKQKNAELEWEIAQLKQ

Binder: KNERLKEEIQRLEQENQQLEEKISQLKYGC [P6SC2]
- interaction score [1]: -2.13
- interaction score [2]: -2.54
- interaction score [3]: 0.0928
- interaction score [4]: -1.84
- interaction score [5]: -1.47
- interaction score [6]: -2.75
- interaction score [7]: -1.75

- interaction score [8]: -2.52
- interaction score [9]: -0.62
- interaction score [10]: -1.47
- interaction score [11]: -2.14
Binder: DKNAALKAKIAALKYENAALEAKIAALKG [O6]

- interaction score [12]: -0.226
- interaction score [13]: 0.124
- interaction score [14]: 0.612
- interaction score [15]: 1.31
- interaction score [16]: -0.214
- interaction score [17]: 0.307
- interaction score [18]: -0.866
- interaction score [19]: 0.549
- interaction score [20]: -0.511
- interaction score [21]: -1.6
Binder: DKNAQLKQEIAELEQKIAELKWENAQLKQ [4H3628-bA]
